# Patent US6541002B1, “Compositions and methods for providing a protein to a virion” (Thomas Jefferson University, priority 1998, dated 2003)
# How the values were obtained:
# HIV-1 virions [1] = test: CAT activity assay of HIV-1 virions from co-transfected 293T cells (incorporation into virions); assay type: cell-based
# Description: About 10^6 293T cells were grown in dishes having a diameter of 10 centimeters. These cells were co-transfected with 10 micrograms of either plasmid pNL4-3 or plasmid pNL4-3DVpr, and with 10 micrograms of a plasmid selected from the group consisting of plasmid pSLXCMV-CAT, plasmid pSLXCMV-VPR-CAT, and plasmid pSLXCMV-dWF-CAT. After transfection, the cells were incubated in medium for about seven hours. The medium was then removed and replaced with fresh medium, and cells and medium were collected about forty-eight hours after the medium was replaced. At that time, the medium comprised virus produced by the cells. The amount of virus present in the medium was determined by assessing the amount of HIV-1 p24 antigen in the medium, using a p24 ELISA kit obtained from Dupont (Wilmington, Del.).
# CAT activity assays were performed as described (Refaeli et al., 1995, Proc. Natl. Acad. Sci. USA 92:3621-3625). Briefly, about 10^6 transfected cells were harvested by centrifugation. Pelleted cells were lysed in 0.9 milliliter of CAT lysis buffer (Promega Corp., Madison, Wis.) to yield a crude extract. 50 microliters of crude extract was used in CAT assays, and the results of the assays were normalized to account for variation in the protein content of the various crude extracts which were made.
# Virions obtained from the medium in which transfected 293T cells were grown were concentrated by ultracentrifuging the medium in a Sorval A-621 rotor for about three hours at 20,000 rotations per minute. […] The amount of HIV-1 p24 antigen in each fraction was assessed, and fractions containing the greatest amounts of p24 were selected. […] CAT activity was assessed in lysed virion preparations.
# CAT activity was assessed by thin-layer chromatographic separation of ^14C-chloramphenicol from its acetylated derivatives. Radioactivity was quantitated by standard liquid scintillation methods. […]
# [2] = test system: IN-Defective HIV-1 Particles; test: Syncytia formation assay with IN-defective HIV-1 particles complemented with IN chimeras; assay type: cell-based
# From the text: Using the calcium phosphate method for delivery of DNA into cells (Profection™, Promega Corp., Madison, Wis.), cells of human kidney carcinoma cell line 293T were transfected using HIV-1 proviral clones or co-transfected with these templates and SLX-CMV-VPR-IN, SLX-CMV-VPR-PR-IN, SLX-CMV-WF-IN, or SLX-CMV-dWF-PR-IN. Three days post-transfection, cell supernatants containing virus were harvested and clarified by low-speed centrifugation. HeLa-CD4-LTR/β-gal cells grown in either 60×14 or 35×10 millimeter plates were infected in duplicate at about 10-15% confluence using various viral stocks. Addition of supernatant to these MAGI reporter cells was adjusted, based upon HIV-1 p24 antigen content as quantitated by ELISA analysis (Kimpton et al., 1992, J. Virol. 66:2232-2239). MAGI cells contain an integrated cassette comprising the β-galactoside gene (β-gal) under the control of the HIV-1 long terminal repeat, and therefore can be stained for β-galactosidase activity (typically 48-72 hours post-infection).
# Infected cells were fixed in a solution comprising 0.2% (v/v) glutaraldehyde and 1% (v/v) formaldehyde for 5 minutes at room temperature. Following fixation, cells were washed with phosphate buffered saline and stained using bromo-4-chloro-3-indolyl-β-D-galactopyranoside for 2 hours at 37° C. Representative fields of stained cells were photographed and numbers of deeply stained syncytia were determined either by visual counting through a microscope or from series of photographs taken in various fields of the stained cells using an Olympus CK2 microscope.
# IN activity was detected using the syncytia formation assay described in this Example.
# HIV-1 virions [3] = test: Western blotting analyses of complemented HIV-1 virions; settings: integration-competent progeny virions
# Description: 293T cells were grown in duplicate 100×20 millimeter culture dishes and transfected as described in the previous section. Virions released into the cell culture medium 2 ½ to 3 days post-transfection were centrifuged at 2000 rpm for 5 minutes at 4° C. to remove cellular debris. Afterward, virions were concentrated by adding 10 milliliters of cell medium atop 2 milliliters of buffered, isotonic 20% (w/v) sucrose, and ultracentrifuging the cushioned medium at 40,000 rpm for 2 hours. The bulk of the solution was removed by careful pipetting, and pelleted virions (visible as slight white pellets) were removed from the bottom of the ultracentrifuge tubes by resuspension in residual medium, typically resulting in a volume of 60 to 100 microliters of concentrated virus particles.
# Particles were loaded into 10-20% (w/v) Tris-HCl or Tris-tricine precast gradient gels (Bio-Rad Laboratories, Richmond, Calif.) and electrophoresed until the bromphenyl blue marker migrated to at least the bottom of the gel. […] IN or IN chimera proteins were detected using a rabbit anti-IN polyclonal serum and visualized by chemiluminescence development (NEN Life Science Products) of bound HRP-conjugated anti-rabbit 1gG antisera used at 1/1500 dilution (Sigma Chemical Co., St. Louis, Mo.).
# [4] = virions from 293T cells co-transfected with pNL4-3 (Vpr expressed)
# [5] = HIV-1 provirus template D116N (Table 4)
# [6] = HIV-1 provirus template D116N, average of duplicate experiments (Table 4)
# [7] = HIV-1 provirus template IN (1-4) (Table 5)
# [8] = HIV-1 provirus template IN (1-234) (Table 5)
Molecule,CAT activity of virions (conversion of chloramphenicol to an acetylated product) (HIV-1 virions [1]; [4]),CAT activity of virions (conversion of chloramphenicol to an acetylated product) (HIV-1 virions [1]; virions from 293T cells co-transfected with pNL4-3DVpr (Vpr not expressed)),"% of Wild Type (syncytia) [2, 5]","Number of Syncytia Formed [2, 6]","Number of Syncytia Formed [2, 7]","Number of Syncytia Formed [2, 8]",amount of fusion protein incorporated into progeny virions (HIV-1 virions [3]),% of Wild Type (syncytia) ([2]; HIV-1 provirus template IN (1-234) (Table 4)),"Number of Syncytia Formed ([2]; HIV-1 provirus template IN (1-234), average of duplicate experiments (Table 4))"
"CAT: chloramphenicol acetyltransferase, a protein which does not normally comprise a Vpr-binding region (protein) MEKKITGYTTVDISQWHRKEHFEAFQSVAQCTYNQTVQLDITAFLKTVKKNKHKFYPAFIHILARLMNAHPEFRMAMKDGELVIWDSVHPCYTVFHEQTETFSSLWSEYHDDFRQFLHIYSQDVACYGENLAYFPKGFIENMFFVSANPWVSFTSFDLNVANMDNFFAPVFTMGKYYTQGDKVLMPLAIQVHHAVCDGFHVGRMLNELQQYCDEWQGGA",8 % conversion,,,,,,,,
WF-CAT (protein) MQPWWAFFGGGSSWWSFSMGPTRMEKKITGYTTVDISQWHRKEHFEAFQSVAQCTYNQTVQLDITAFLKTVKKNKHKFYPAFIHILARLMNAHPEFRMAMKDGELVIWDSVHPCYTVFHEQTETFSSLWSEYHDDFRQFLHIYSQDVACYGENLAYFPKGFIENMFFVSANPWVSFTSFDLNVANMDNFFAPVFTMGKYYTQGDKVLMPLAIQVHHAVCDGFHVGRMLNELQQYCDEWQGGA,28 % conversion,8 % conversion,,,,,,,
dWF-IN: dWF peptide (SEQ ID NO: 1) fused at its carboxyl terminus to the amino terminus of HIV-1 IN (protein) MQPWWAFFGGGSSWWSFSMGPTRFLDGIDKAQEEHEKYHSNWRAMASDFNLPPVVAKEIVASCDKCQLKGEAMHGQVDCSPGIWQLDCTHLEGKVILVAVHVASGYIEAEVIPAETGQETAYFLLKLAGRWPVKTVHTDNGSNFTSTTVKAACWWAGIKQEFGIPYNPQSQGVIESMNKELKKIIGQVRDQAEHLKTAVQMAVFIHNFKRKGGIGGYSAGERIVDIIATDIQTKELQKQITKIQNFRVYYRDSRDPVWKGPAKLLWKGEGAVVIQDNSDIKVVPRRKAKIIRDYGKQMAGDDCVASRQDED,,,20.8%,42,10,14,equal to the amount of IN(D116N) protein incorporated into progeny virions,,
"dWF-PR-IN: dWF peptide (SEQ ID NO: 1) fused to the HIV-1 protease cleavage site (PR), which is fused to the amino terminus of IN (protein, left off: small tags and cut ends) MQPWWAFFGGGSSWWSFSMGPTRFLDGIDKAQEEHEKYHSNWRAMASDFNLPPVVAKEIVASCDKCQLKGEAMHGQVDCSPGIWQLDCTHLEGKVILVAVHVASGYIEAEVIPAETGQETAYFLLKLAGRWPVKTVHTDNGSNFTSTTVKAACWWAGIKQEFGIPYNPQSQGVIESMNKELKKIIGQVRDQAEHLKTAVQMAVFIHNFKRKGGIGGYSAGERIVDIIATDIQTKELQKQITKIQNFRVYYRDSRDPVWKGPAKLLWKGEGAVVIQDNSDIKVVPRRKAKIIRDYGKQMAGDDCVASRQDED",,,25.7%,52,18,20,,21.7%,44
